According to PMC10362037:

Biological target: SARS-CoV-2 (2019-nCov) Spike S1 (Abclonal, RP01262) (SARS-CoV-2) (UniProt P0DTC2)
Assay: SPR

| Substance | Kd [µM] |
| --- | --- |
| Human integrin αvβ3 (R&D Systems, 3817-AV-050) (from UniProt P06756 31-1048; P05106 27-718) (complex) | 0.0404 |
| suPAR (purified protein of the SPR assay) (from UniProt Q03405 23-305) (natural protein) | > 2000 |
